{
  "source": "patent US20220088134A1",
  "about": "(REGENTS OF THE UNIVERSITY OF MINNESOTA, published 2022)",
  "binders": {"B1": {"name": "human CD200AR-L peptide P4A10 (peptide)", "peptide": "Ac-CLFNTFGFGAISGTA-NH2"}},
  "target": "human CD200 activation receptors (CD200AR) (human)",
  "assay": "cell-based or functional assay",
  "data": [
    {"binder": "B1", "values": [
      {"measurement": "T-cell secretion of IFNγ after treatment of iDCs with P4A10", "value": 5.4, "unit": "fold"},
      {"measurement": "T-cell secretion of IL6 after treatment of iDCs with P4A10", "value": 5.6, "unit": "fold"},
      {"measurement": "T-cell secretion of RANTES after treatment of iDCs with P4A10", "value": 16.3, "unit": "fold"},
      {"measurement": "T-cell secretion of TNFα after treatment of iDCs with P4A10", "value": 16.6, "unit": "fold"}
    ]}
  ]
}
